Measurements as given in CN115850477A (SUZHOU SHALI BIOTECHNOLOGY CO LTD, dated 2023).

Tests used:
[1] = molecular target: Human 4-1BB/TNFRSF9 Protein, His Tag (ACRO Biosystems) (human) (UniProt Q07011); test: ELISA, coated 4-1BB-his, scFv clone supernatant
[2] = molecular target: T1, Human 4-1BB/TNFRSF9 Protein, His Tag (ACRO Biosystems) (human, UniProt Q07011 24-186); test: ELISA, coated Human 4-1BB His Tag 1 ug/ml, antibody from 10 ug/ml in two-fold dilutions
T1 construct: Bought from ACRO Biosystems; also called 4-1BB-his; not shown: His tag
T1 sequence (Q07011 24-186 limits assumed): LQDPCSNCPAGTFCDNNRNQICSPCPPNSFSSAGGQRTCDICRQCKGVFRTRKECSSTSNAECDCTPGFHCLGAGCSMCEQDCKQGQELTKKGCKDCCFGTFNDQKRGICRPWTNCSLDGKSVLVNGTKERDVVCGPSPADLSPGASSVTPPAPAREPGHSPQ

| OD450 [1] | EC50 [2] [µg/mL] | Binder |
| --- | --- | --- |
| 1.12 | – | GT1C8 (scFv克隆, 初筛离心上清) (scFv, V domains shown) VH: QMQLQESGPSLVKPSQTLSLTCSVTGDSITSGYWTWIRKFPGNRLEYMGFKSYSGSTYYNPSLKSRISITRDTSKNQYYLQLNSVTTEDTATYYCARSLLWLGAMDYWGQGTSVTVSS VL: DIVMTQSHKFMSTSVGDRVSITCKASQDVGTAVAWYQQKPGQSPKLLIYWASTRHTGVPDRFTGSGSGTDFTLTISNVQSEDLADYFCQQYSSYPYTFGGGTKLEMKR |
| – | 0.102 | GT1C8 huIgG1型抗体 (antibody, V domains shown, GT1C8 is the only antibody described, but the name GT1C8 is never tied to these numbers in words; also called GT1C8的huIgG1抗体; GT1C8克隆hIgG1形式抗体) VH: QMQLQESGPSLVKPSQTLSLTCSVTGDSITSGYWTWIRKFPGNRLEYMGFKSYSGSTYYNPSLKSRISITRDTSKNQYYLQLNSVTTEDTATYYCARSLLWLGAMDYWGQGTSVTVSS VL: DIVMTQSHKFMSTSVGDRVSITCKASQDVGTAVAWYQQKPGQSPKLLIYWASTRHTGVPDRFTGSGSGTDFTLTISNVQSEDLADYFCQQYSSYPYTFGGGTKLEMKR |
